Assay results from patent US20150273076A1, “SP1 POLYPEPTIDES, MODIFIED SP1 POLYPEPTIDES AND USES THEREOF” (Fulcrum SP Ltd., priority 2006, published 2015).

Assay: Resistance of SP1 complex to organic solvents
Type: physicochemical
Description: 150 ul of 1 mg/ml samples in 10 mM sodium phosphate pH 7 were lyophilized overnight and resuspended in 150 μl organic solvents for 10 minutes. Following a 30 minutes speed vac the samples were resuspended in 150 μl water and analyzed by SDS-PAGE.
In order to further test the stability of SP1 and SP1 oligomeric complexes, wild type SP1 and the SP1 variant Cys2 SP1 were dissolved in buffer, exposed to organic solvents methanol and hexane, and analyzed by SDS-PAGE (FIG. 18).
In order to determine the stability of the SP1 complex in organic solvents, SP1 and Cys2 SP1-variant (SEQ ID NO: 3) were dissolved in organic solvents, dried, reconstituted with aqueous solvent, and separated on SDS-PAGE.

With “wild type: stress related SP1 protein from aspen (Populus tremula), recombinant, SEQ ID NO:1” the “protease resistance after hexane treatment” value (hexane-treated, data not shown) was “resistance to protease treatment” and the “resistance of oligomeric complex to organic solvents” value (methanol, hexane, SDS-PAGE) was “Predominantly high molecular weight oligomer complex form”.
